From patent publication US20260250412A1 (GENEQUANTUM HEALTHCARE SUZHOU, published 2026)

Key:
[1] = target: T1, recombinant extracellular domain of human TROP2 (human, UniProt P09758 27-274); test: ELISA on plate-coated human Trop2 ECD (0.5 ug/mL), detection with goat anti-human Fc-HRP, TMB, absorbance at 450 nm
T1 construct: extracellular domain; also called Human Trop 2 ECD; Trop2 ECD
T1 sequence (looked up): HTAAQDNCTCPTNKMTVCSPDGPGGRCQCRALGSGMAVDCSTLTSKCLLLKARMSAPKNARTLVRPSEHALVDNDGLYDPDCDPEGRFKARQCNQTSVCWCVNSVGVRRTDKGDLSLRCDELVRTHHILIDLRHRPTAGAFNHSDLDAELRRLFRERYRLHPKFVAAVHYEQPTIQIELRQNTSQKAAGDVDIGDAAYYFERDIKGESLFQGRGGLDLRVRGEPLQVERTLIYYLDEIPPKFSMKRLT
Protocol: Human Trop 2 ECD at concentration of 0.5 μg/mL was coated on 96-well plates at 4° C. for overnight. The plates were then blocked with 3% BSA-PBST for 1 h at room temperature. […] After incubation goat anti-human FC secondary antibody (HRP) (Sinobiological, SSA001) was added at a ratio of 1:100000 and incubated at room temperature for 60 min again. Following the wash, the plate was treated with TMB solution (Sigma, T0440) as an HRP substrate, and the reaction was stopped with 1 M H₂SO₄. The absorbance for each well was detected at 450 nm wavelength.

[2] = target: T1, recombinant extracellular domain of …; test: SPR (Biacore T200), antibody captured on Protein A chip, TROP2 ECD as analyte, 1:1 model, 25 C
Protocol: Binding kinetics and affinity analysis were performed. Surface Plasmon Resonance (SPR) analysis was performed on a Biacore T200 (GE healthcare) with a Sensor Chip Protein A (GE healthcare) following manufacturer's instructions. All measurements were performed at 25° C. in the HBS-EP⁺ buffer (10 mM HEPES, pH 7.4, 150 mM NaCl, 3 mM EDTA, and 0.05% surfactant P20). About 110-140 RU (Resonance unit) of each of the purified antibodies was captured on flow cells 2 and 4 (i.e., the reaction surface) of the sensor chip, respectively. Flow cells 1 and 3 were treated with the HBS-EP⁺ buffer to serve as reference surfaces.
Serial dilutions of the recombinant extracellular domain of human TROP2 (i.e., the analyte) (Acrobio system) (243, 81, 27, 9, 3, 1, 0.333, and 0.111 nM, respectively) were prepared in HBS-EP⁺ buffer. Capturing of the antibodies was followed by a three-minute injection (association phase) of serial dilutions of TROP2 at a flow rate of 30 μL/min and ten minutes of buffer flow (dissociation phase). The chip surface was regenerated by two pulses of 30-second injection of 10 mM Glycine-HCl pH 1.5 at a flow rate of 50 μL/min. The collected data were processed on a Biacore T200 Evaluation software using methods known in the art, comprising the following steps: (1) setting the response on the y-axis and the start of the injection on the x-axis to zero, (2) performing double referencing by firstly subtracting the reference surface data from the reaction surface data to get the analyte injection curves, and then subtracting the buffer injection curves from the analyte injection curves, and (3) performing the kinetic analysis using the 1:1 binding model with a global fit.

| Binder | EC50 (read off the curve) [1] [µg/mL] | Kd [2] [nM] |
| --- | --- | --- |
| ADC-2 (antibody, human IgG1, kappa) heavy: not shown light: DIQLTQSPSSLSASVGDRVSITCKASQDVSIAVAWYQQKPGKAPKLLIYSASYRYTGVPDRFSGSGSGTDFTLTISSLQPEDFAVYYCQQHYITPLTFGAGTKVEIKRTVAAPSVFIFPPSDEQLKSGTASVVCLLNNFYPREAKVQWKVDNALQSGNSQESVTEQDSKDSTYSLSSTLTLSKADYEKHKVYACEVTHQGLSSPVTKSFNRGECGALPETGG | ~0.02 | – |
| Trodelvy (antibody, human IgG1, kappa, SN-38 conjugated; sites not stated, also called IMMU-132) heavy: not shown light: DIQLTQSPSSLSASVGDRVSITCKASQDVSIAVAWYQQKPGKAPKLLIYSASYRYTGVPDRFSGSGSGTDFTLTISSLQPEDFAVYYCQQHYITPLTFGAGTKVEIKRTVAAPSVFIFPPSDEQLKSGTASVVCLLNNFYPREAKVQWKVDNALQSGNSQESVTEQDSKDSTYSLSSTLTLSKADYEKHKVYACEVTHQGLSSPVTKSFNRGEC | ~0.02 | – |
| GQhRS7 (antibody, human IgG1, kappa, unconjugated) heavy: not shown light: DIQLTQSPSSLSASVGDRVSITCKASQDVSIAVAWYQQKPGKAPKLLIYSASYRYTGVPDRFSGSGSGTDFTLTISSLQPEDFAVYYCQQHYITPLTFGAGTKVEIKRTVAAPSVFIFPPSDEQLKSGTASVVCLLNNFYPREAKVQWKVDNALQSGNSQESVTEQDSKDSTYSLSSTLTLSKADYEKHKVYACEVTHQGLSSPVTKSFNRGECGALPETGG | ~0.02 | – |
| Datopotamab (antibody, human IgG1, kappa, V domains shown, expressed in HEK293F; also called DS1062a Ab; DS1062's antibody) VH: QVQLVQSGAEVKKPGASVKVSCKASGYTFTTAGMQWVRQAPGQGLEWMGWINTHSGVPKYAEDFKGRVTISADTSTSTAYLQLSSLKSEDTAVYYCARSGFGSSYWYFDVWGQGTLVTVSS VL: DIQMTQSPSSLSASVGDRVTITCKASQDVSTAVAWYQQKPGKAPKLLIYSASYRYTGVPSRFSGSGSGTDFTLTISSLQPEDFAVYYCQQHYITPLTFGQGTKLEIKR | – | 13 |
| hRS7 (from TRODELVY) (antibody, human IgG1, kappa, expressed in HEK293F; also called Trodelvy's antibody) heavy: not shown light: DIQLTQSPSSLSASVGDRVSITCKASQDVSIAVAWYQQKPGKAPKLLIYSASYRYTGVPDRFSGSGSGTDFTLTISSLQPEDFAVYYCQQHYITPLTFGAGTKVEIKRTVAAPSVFIFPPSDEQLKSGTASVVCLLNNFYPREAKVQWKVDNALQSGNSQESVTEQDSKDSTYSLSSTLTLSKADYEKHKVYACEVTHQGLSSPVTKSFNRGEC | – | 1.28 |
| Ab13 (antibody, human IgG1, kappa, V domains shown) VH: QVQLQQSGSELKKPGASVKVSCKASGYTFTNAGMNWVKQAPGQGLKWMGWINTDSGEPTYTDDFKGRFAFSLDTSVSTAYLQISSLKADDTAVYFCARGGFGSSYWYFDVWGQGSLVTVSS VL: DIQLTQSPSSLSASVGDRVSITCKASQDVSIAVAWYQQKPGKAPKLLIYSASYRYTGVPDRFSGSGSGTDFTLTISSLQPEDFAVYYCQQHYITPLTFGAGTKVEIKR | – | 8.16 |
| Ab16 (antibody, human IgG1, kappa, V domains shown) VH: QVQLQQSGSELKKPGASVKVSCKASGYTFTAAGMNWVKQAPGQGLKWMGWINTYTGEPTYTDDFKGRFAFSLDTSVSTAYLQISSLKADDTAVYFCARGGFGSSYWYFDVWGQGSLVTVSS VL: DIQLTQSPSSLSASVGDRVSITCKASQDVSIAVAWYQQKPGKAPKLLIYSASYRYTGVPDRFSGSGSGTDFTLTISSLQPEDFAVYYCQQHYITPLTFGAGTKVEIKR | – | 13.1 |
